Patent US20210032294A1, “MODIFIED PlySs2 LYSINS AND USES THEREOF” (CONTRAFECT CORPORATION, priority 2018, published 2021)
Entries after “also recorded” stand apart in the source; their conditions may differ.

Assays:
[1] = system: MSSA isolates; assay: MIC in CAMHB-HSD against MSSA isolates; assay type: cell-based, Staphylococcus aureus; settings: 51 MSSA isolates
Procedure: In vitro activity of the modified lysin polypeptide pp296 was assessed against a range of 51 MSSA and 51 MRSA isolates in cation-adjusted Mueller Hinton broth supplemented with 25% horse serum and 0.5 mM DTT (CAMHB-HSD) and compared to WT GMP grade PlySs2 (CF-301). CF-301 and pp296 were each diluted into CAMHB-HSD. For each lysin, the dilution series is set up such that, after a two-fold dilution of each well of the plate, the final concentrations contained: 64, 32, 16, 8, 4, 2, 1, 0.5, 0.25, and 0.125 μg/mL. Each lysin was tested in duplicate against each strain. Preparations were incubated overnight. Growth was visualized as a growth button approximately 2 mm in diameter. The highest dilution that yielded ≥80% growth inhibition was called the minimum inhibitory concentration (MIC). The activity of pp296 was very similar, within one 2-fold dilution, to that of CF-301, as shown below in Table 7.

[2] = system: MRSA strain MW2; assay: Serial passage resistance assay; assay type: cell-based, Staphylococcus aureus
Procedure: An analysis of bacterial resistance was performed using MRSA strain MW2 over 18 days of serial passage in the presence of a pp296 dilution series and an antibiotic dilution series in presence and absence of sub-MIC amounts of pp296. Briefly, the broth microdilution MIC format was used in which 2-fold dilutions ranges of pp296 alone or antibiotic in the presence and absence of a fixed sub-MIC amount of pp296 was cultured with bacteria (5×10^5 CFU/ml starting concentration) in MHB for 20 hours at 37° C. The well with the highest concentration of the modified lysin polypeptide in which bacterial growth was seen was then used as the inoculum for the next day's passage, and the process was repeated over a […]. The MIC at each daily time-point was recorded, and resistance was measured as a step-wise increase in MIC. […] The results are depicted graphically in FIGS. 3A-3C.

[3] = system: 1-day old biofilms formed by MSSA isolates; assay: Minimum Biofilm Eradication Concentration (MBEC), MSSA biofilms; assay type: cell-based, Staphylococcus aureus; settings: 24 hours treatment
Procedure: (§1) In some embodiments, the present modified lysin polypeptides are capable of reducing a biofilm. […] Biofilms are then washed and treated with e.g., a 2-fold dilution series of the lysin in TSBg at e.g., 37° C. for 24 hours. After treatment, wells are washed, air-dried at e.g., 37° C. and stained with e.g., 0.05% crystal violet for 10 minutes. After staining, the biofilms are destained in e.g., 33% acetic acid and the OD600 of e.g., extracted crystal violet is determined. The MBEC of each sample is the minimum lysin concentration required to remove >95% of the biofilm biomass assessed by crystal violet quantitation.
(§2) The anti-biofilm activity of pp296 was determined against 1-day old biofilms formed by 17 MSSA and 20 MRSA isolates in a 96-well broth microdilution format. The Minimum Biofilm Eradication Concentration (MBEC) values for pp296, compared to wild-type PlySs2 (CF-301), were determined by the following standard methodology. Bacteria were suspended in PBS (0.5 McFarland Units), diluted 1:100 in TSBg (66% tryptic soy broth, 0.2% glucose), added as 0.15 mL aliquots to 96-well polystyrene microplates, and incubated for 24 hours at 37° C. Biofilms were then washed and treated with a 2-fold dilution series of CF-301 or pp296 in TSBg at 37° C. for 24 hours. All samples were examined in triplicate. After treatment, wells were washed, air-dried at 37° C., and stained with 0.05% crystal violet for 10 min The loss of biofilm biomass was assessed visually, and crystal violet was quantitated by solubilization in 33% (vol/vol) acetic acid. The optical density of 600 nm (OD600) was determined using a SpectraMax M3 Multimode microplate reader. The MBEC of each sample was the minimum lysin concentration required to remove >95% of the biofilm biomass assessed by crystal violet quantitation.

[4] = system: 1-day old biofilms formed by MRSA isolates; assay: Minimum Biofilm Eradication Concentration (MBEC), MRSA biofilms; assay type: cell-based, Staphylococcus aureus; settings: 24 hours treatment
Procedure: as §1, §2

[5] = system: S. aureus isolate CFS-860; assay: Mouse neutropenic thigh infection (MNTI) model; assay type: in vivo, Staphylococcus aureus
Procedure: The efficacy of four modified lysin polypeptides was compared to wild-type PlySs2 in a dose response (0-60 mg/kg) assay using a mouse neutropenic thigh infection (MNTI) model.
Bacterial inoculum was generated by allowing bacterial cells to grow to exponential phase in MHB until they reached an optical density (OD) of about 0.5 at 600 nm. The bacterial cells were thoroughly washed, resuspended in 0.9% sodium chloride USP, and diluted to an equivalent of 3.9×10^8 colony forming units (CFU)/mL. Cells were further diluted as described below in 0.9% sodium chloride USP and maintained on wet ice.
Neutropenia was induced in female BALB/cByJ mice (5-7 weeks, Jackson Laboratories) by intraperitoneal (ip) administration of 150 mg/kg and 100 mg/kg of cyclophosphamide 4 and 1 days prior to inoculation of bacteria, respectively. Bacterial inoculum (S. aureus isolate CFS-860, 100 μl of 10^7 CFU/ml solution) was injected intramuscularly (IM) into both posterior thighs of each mouse. […] At 2 hours post-inoculation (Early Control) and 24 hours post-treatment initiation, animals were euthanized (CO2 asphyxiation), and the thighs were aseptically removed. Each thigh was weighed, placed into 4 ml sterile saline and homogenized in 7 ml lysing tubes using a Precellys24 high-throughput tissue homogenizer (Bertin Corp, Rockville, Md.). Dilutions of homogenate were plated on tryptic soy blood agar plates (Becton Dickinson) and incubated at 37° C. overnight in a CO2 incubator. Bacterial burden was enumerated and expressed as log 10 CFU/g of thigh weight and compared to control animals harvested at 2 hours post infection (Early Control) and animals treated with vehicle (Late Control).
The data representing mouse thigh bacterial burden are depicted in FIG. 2. The upper dot on the y-axis is vehicle alone, and the lower dot on the y-axis is the Early Control. pp1149 is in fact also a wild-type lysin over-expressed and purified in the laboratory along with the other modified lysin polypeptides and used as an additional positive control.

[6] = system: 5 MRSA strains and 5 MSSA strains; assay: Checkerboard synergy assay with daptomycin or vancomycin; assay type: cell-based, Staphylococcus aureus; settings: MRSA (JMI-41293) strain

B1: pp296: Modified PlySs2 lysin, SEQ ID NO: 6: L92W, V104S, V128T, Y137S, Y164K, N184D, S198Q (protein)
chain: MTTVNEALNNVRAQVGSGVSVGNGECYALASWYERMISPDATVGLGAGVGWVSGAIGDTISAKNIGSSYNWQANGWTVSTSGPFKAGQIVTWGATPGNPYGHVSIVEAVDGDRLTILEQNYGGKRYPTRNYYSAASSRQQVVHYITPPGTVAQSAPNLAGSRSKRETGTMTVTVDALNVRRAPDTSGEIVAVYKRGEQFDYDTAIIDVNGYAWVSYIGGSGKRNYVATGATKDGKRFGNAWGTFK
With B1 the MIC50 [1] was 1 µg/mL, the MIC90 [1] was 1 µg/mL and the “MIC Range” value [1] was 0.5 to 2 µg/mL. For the same molecule, the “Increase in MIC of DAP or VAN / appearance of antibiotic resistance” value ([2]; antibiotic plus fixed sub-MIC amount of lysin) was “no or very little increase; also recorded: suppressed the appearance of daptomycin and vancomycin resistance”, the “Resistance to the lysin (increase in MIC on serial passage)” value ([2]; lysin alone, three replicate lineages, 21-26 day period) was “no or very little increase; also recorded: no resistance to pp296 was observed” and the “Amount needed to suppress DAP resistance” value ([2]; with daptomycin, 1/16th the MIC for pp296 alone) was 0.125 µg/mL. The “Amount needed to suppress development of VAN resistance” value ([2]; with vancomycin, 1/8th the MIC for pp296 alone) was 0.25 µg/mL, the MBEC50 [3] was 0.063 µg/mL and the MBEC90 [3] was 0.25 µg/mL. The “MBEC Range” value [3] was 0.01 to 1 µg/mL, the MBEC50 [4] was 0.031 µg/mL and the MBEC90 [4] was 0.06 µg/mL. For the same molecule, the “MBEC Range” value [4] was 0.01 to 0.25 µg/mL, the “Performance in MNTI at lower doses” value ([5]; 0.5 mg/kg) was “performed comparably to wild type” and the “Bactericidal efficacy (thigh bacterial burden) versus wild type” value ([5]; neutropenic BALB/cByJ mice, intravenous, dose response, 24 hours) was “activity comparable to wild-type PlySs2 lysin”. The “Bactericidal efficacy at the lowest dose used” value ([5]; neutropenic mice, intravenous, 5 mg/kg) was “comparable to that of wild-type PlySs2 lysin” and the FIC index [6] was 0.75.
